Starred links: 1 amine or outer side, 2 acyl side, 3 side chain; linkers in the order of their positions; H or OH if unused. Non-standard residues stand in square brackets, D forms with d. Groups on a side chain read outwards from the residue. Primed or numbered codes have the meaning given here. No end group written: not given here. *: point of attachment. PEG 40 kDa = 40 kDa polyethylene glycol attached to Cys; PEG 40 kDa″ = 40 kDa polyethylene glycol; γGlu = O=C(O)[C@H](CCC(=O)[*:2])N[*:1]; Stearoyl = CCCCCCCCCCCCCCCCCC(=O)*; Palmitoyl = CCCCCCCCCCCCCCCC(=O)*; Myristoyl = CCCCCCCCCCCCCC(=O)*; Aib = CC(C)(N)C(=O)O
B1: Peptide 77** (SEQ ID NO: 616) (peptide)
peptide: H[Aib]QGTFTSDK(Myristoyl)SKYLD[Aib]RRAQDFVCWLMNT-NH2
modifications: N-terminus assumed
SMILES: CCCCCCCCCCCCCC(=O)NCCCC[C@H](NC(=O)[C@H](CC(=O)O)NC(=O)[C@H](CO)NC(=O)[C@@H](NC(=O)[C@H](Cc1ccccc1)NC(=O)[C@@H](NC(=O)CNC(=O)[C@H](CCC(N)=O)NC(=O)C(C)(C)NC(=O)[C@@H](N)Cc1c[nH]cn1)[C@@H](C)O)[C@@H](C)O)C(=O)N[C@@H](CO)C(=O)N[C@@H](CCCCN)C(=O)N[C@@H](Cc1ccc(O)cc1)C(=O)N[C@@H](CC(C)C)C(=O)N[C@@H](CC(=O)O)C(=O)NC(C)(C)C(=O)N[C@@H](CCCNC(=N)N)C(=O)N[C@@H](CCCNC(=N)N)C(=O)N[C@@H](C)C(=O)N[C@@H](CCC(N)=O)C(=O)N[C@@H](CC(=O)O)C(=O)N[C@@H](Cc1ccccc1)C(=O)N[C@H](C(=O)N[C@@H](CS)C(=O)N[C@@H](Cc1c[nH]c2ccccc12)C(=O)N[C@@H](CC(C)C)C(=O)N[C@@H](CCSC)C(=O)N[C@@H](CC(N)=O)C(=O)N[C@H](C(N)=O)[C@@H](C)O)C(C)C
B2: Peptide 78** (SEQ ID NO: 617) (peptide)
peptide: H[Aib]QGTFTSDK([γGlu-γGlu-Myristoyl])SKYLD[Aib]RRAQDFVCWLMNT-NH2
modifications: N-terminus assumed
SMILES: CCCCCCCCCCCCCC(=O)N[C@@H](CCC(=O)N[C@@H](CCC(=O)NCCCC[C@H](NC(=O)[C@H](CC(=O)O)NC(=O)[C@H](CO)NC(=O)[C@@H](NC(=O)[C@H](Cc1ccccc1)NC(=O)[C@@H](NC(=O)CNC(=O)[C@H](CCC(N)=O)NC(=O)C(C)(C)NC(=O)[C@@H](N)Cc1c[nH]cn1)[C@@H](C)O)[C@@H](C)O)C(=O)N[C@@H](CO)C(=O)N[C@@H](CCCCN)C(=O)N[C@@H](Cc1ccc(O)cc1)C(=O)N[C@@H](CC(C)C)C(=O)N[C@@H](CC(=O)O)C(=O)NC(C)(C)C(=O)N[C@@H](CCCNC(=N)N)C(=O)N[C@@H](CCCNC(=N)N)C(=O)N[C@@H](C)C(=O)N[C@@H](CCC(N)=O)C(=O)N[C@@H](CC(=O)O)C(=O)N[C@@H](Cc1ccccc1)C(=O)N[C@H](C(=O)N[C@@H](CS)C(=O)N[C@@H](Cc1c[nH]c2ccccc12)C(=O)N[C@@H](CC(C)C)C(=O)N[C@@H](CCSC)C(=O)N[C@@H](CC(N)=O)C(=O)N[C@H](C(N)=O)[C@@H](C)O)C(C)C)C(=O)O)C(=O)O
B3: Peptide 80** (SEQ ID NO: 619) (peptide)
peptide: H[Aib]QGTFTSDK([γGlu-γGlu-Palmitoyl])SKYLD[Aib]RRAQDFVCWLMNT-NH2
modifications: N-terminus assumed
SMILES: CCCCCCCCCCCCCCCC(=O)N[C@@H](CCC(=O)N[C@@H](CCC(=O)NCCCC[C@H](NC(=O)[C@H](CC(=O)O)NC(=O)[C@H](CO)NC(=O)[C@@H](NC(=O)[C@H](Cc1ccccc1)NC(=O)[C@@H](NC(=O)CNC(=O)[C@H](CCC(N)=O)NC(=O)C(C)(C)NC(=O)[C@@H](N)Cc1c[nH]cn1)[C@@H](C)O)[C@@H](C)O)C(=O)N[C@@H](CO)C(=O)N[C@@H](CCCCN)C(=O)N[C@@H](Cc1ccc(O)cc1)C(=O)N[C@@H](CC(C)C)C(=O)N[C@@H](CC(=O)O)C(=O)NC(C)(C)C(=O)N[C@@H](CCCNC(=N)N)C(=O)N[C@@H](CCCNC(=N)N)C(=O)N[C@@H](C)C(=O)N[C@@H](CCC(N)=O)C(=O)N[C@@H](CC(=O)O)C(=O)N[C@@H](Cc1ccccc1)C(=O)N[C@H](C(=O)N[C@@H](CS)C(=O)N[C@@H](Cc1c[nH]c2ccccc12)C(=O)N[C@@H](CC(C)C)C(=O)N[C@@H](CCSC)C(=O)N[C@@H](CC(N)=O)C(=O)N[C@H](C(N)=O)[C@@H](C)O)C(C)C)C(=O)O)C(=O)O
B4: Peptide 79** (SEQ ID NO: 620) (peptide)
peptide: H[Aib]QGTFTSDK([Ala-Ala-Palmitoyl])SKYLD[Aib]RRAQDFVCWLMNT-NH2
modifications: N-terminus assumed
SMILES: CCCCCCCCCCCCCCCC(=O)N[C@@H](C)C(=O)N[C@@H](C)C(=O)NCCCC[C@H](NC(=O)[C@H](CC(=O)O)NC(=O)[C@H](CO)NC(=O)[C@@H](NC(=O)[C@H](Cc1ccccc1)NC(=O)[C@@H](NC(=O)CNC(=O)[C@H](CCC(N)=O)NC(=O)C(C)(C)NC(=O)[C@@H](N)Cc1c[nH]cn1)[C@@H](C)O)[C@@H](C)O)C(=O)N[C@@H](CO)C(=O)N[C@@H](CCCCN)C(=O)N[C@@H](Cc1ccc(O)cc1)C(=O)N[C@@H](CC(C)C)C(=O)N[C@@H](CC(=O)O)C(=O)NC(C)(C)C(=O)N[C@@H](CCCNC(=N)N)C(=O)N[C@@H](CCCNC(=N)N)C(=O)N[C@@H](C)C(=O)N[C@@H](CCC(N)=O)C(=O)N[C@@H](CC(=O)O)C(=O)N[C@@H](Cc1ccccc1)C(=O)N[C@H](C(=O)N[C@@H](CS)C(=O)N[C@@H](Cc1c[nH]c2ccccc12)C(=O)N[C@@H](CC(C)C)C(=O)N[C@@H](CCSC)C(=O)N[C@@H](CC(N)=O)C(=O)N[C@H](C(N)=O)[C@@H](C)O)C(C)C

Biological target: T1, GLP-1 receptor (UniProt P43220 24-463, limits assumed)
Experiment: cell-based or functional assay

H[Aib]QGTFTSDK(Myristoyl)SKYLDEQAAKEFIC(PEG 40 kDa)WLMNT-NH2 [C14 acylated Glucagon analog peptide (SEQ ID NO: 535)] and H[Aib]QGTFTSDK(Palmitoyl)SKYLDEQAAKEFIC(PEG 40 kDa)WLMNT-NH2 [C16 acylated Glucagon analog peptide (SEQ ID NO: 536)] are within 1.5-fold of each other in EC50: 0.0168 nM for the first, 0.0127 nM for the second.

H[Aib]QGTFTSDK(Stearoyl)SKYLDEQAAKEFIC(PEG 40 kDa″)WLMNT-NH2 [C18 acylated Glucagon analog peptide (SEQ ID NO: 537)] was tested, and the EC50 was 0.0118 nM.

Biological target: T2, glucagon receptor (UniProt P47871 26-477, limits assumed)
T2 sequence (P47871 26-477 limits assumed): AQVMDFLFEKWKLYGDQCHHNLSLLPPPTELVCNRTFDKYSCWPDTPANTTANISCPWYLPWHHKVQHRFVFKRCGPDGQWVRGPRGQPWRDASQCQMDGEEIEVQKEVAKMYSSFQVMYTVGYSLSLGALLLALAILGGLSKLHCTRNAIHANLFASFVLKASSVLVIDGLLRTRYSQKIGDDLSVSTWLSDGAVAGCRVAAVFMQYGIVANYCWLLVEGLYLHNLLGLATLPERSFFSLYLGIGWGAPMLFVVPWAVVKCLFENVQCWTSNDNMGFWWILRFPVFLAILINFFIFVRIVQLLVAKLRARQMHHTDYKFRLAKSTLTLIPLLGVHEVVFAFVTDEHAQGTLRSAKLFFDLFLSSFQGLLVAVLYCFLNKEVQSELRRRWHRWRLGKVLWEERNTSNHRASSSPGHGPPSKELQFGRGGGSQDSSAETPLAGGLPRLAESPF
Experiment: cell-based or functional assay

First: H[Aib]QGTFTSDK(Palmitoyl)SKYLDEQAAKEFIC(PEG 40 kDa)WLMNT-NH2 [C16 acylated Glucagon analog peptide (SEQ ID NO: 536)]
Second: H[Aib]QGTFTSDK(Stearoyl)SKYLDEQAAKEFIC(PEG 40 kDa″)WLMNT-NH2 [C18 acylated Glucagon analog peptide (SEQ ID NO: 537)]
The EC50 of the first is 2-fold higher: 17.4 nM for the first, 8.55 nM for the second.

Biological target: T1, GLP-1 receptor
Experiment: cell-based or functional assay
Remark: another data set of the same source

Work on H[Aib]QGTFTSDK(Palmitoyl)SKYLDEQAAKEFIC(PEG 40 kDa)WLMNT-NH2 [C16 acylated Glucagon analog peptide (SEQ ID NO: 536)] yielded an EC50 of 0.05 nM.

Biological target: T2, glucagon receptor
Experiment: cell-based or functional assay
Remark: another data set of the same source

Binder HSQGTFTSDK([Glu-Palmitoyl])SKYLDERRAKDFVQWLMNT-NH2 [Peptide D (Example 22)] has an EC50 of 0.062 nM.

Biological target: T1, GLP-1 receptor
Experiment: cell-based or functional assay
Remark: another data set of the same source

HSQGTFTSDK([Glu-Palmitoyl])SKYLDERRAKDFVQWLMNT-NH2 [Peptide D (Example 22)] was tested, and the EC50 was 0.056 nM.

Biological target: T2, glucagon receptor
Experiment: cell-based or functional assay
Remark: another data set of the same source

Going from B1 to B2, the EC50 falls from 0.144 nM to 0.009 nM (16-fold). The second is the more potent here.

Going from B3 to B4, the EC50 rises from 0.006 nM to 0.01 nM (1.7-fold).

Biological target: T1, GLP-1 receptor
Experiment: cell-based or functional assay
Remark: another data set of the same source

First: B1
Second: B2
The EC50 of the first is 7.9-fold higher: 0.063 nM for the first, 0.008 nM for the second. The second is the more potent here.

B3 and B4 are the same in EC50: 0.008 nM for the first, 0.008 nM for the second.

Biological target: T1, GLP-1 receptor
Experiment: cell-based or functional assay
Remark: another data set of the same source

H[Aib]QGTFTSDK(Myristoyl)SKYLDEQAAKEFIC(PEG 40 kDa)WLMNT-NH2 [C14 acylated Glucagon analog peptide (SEQ ID NO: 535)] and H[Aib]QGTFTSDK(Palmitoyl)SKYLDEQAAKEFIC(PEG 40 kDa)WLMNT-NH2 [C16 acylated Glucagon analog peptide (SEQ ID NO: 536)] are within 1.5-fold of each other in EC50: 0.044 nM for the first, 0.033 nM for the second.

With H[Aib]QGTFTSDKSKYLDEQAAKEFIC(PEG 40 kDa)WLMNT-NH2 [Non-acylated Glucagon analog peptide (SEQ ID NO: 580)] the EC50 was 0.095 nM.

Source: US20120172295A1 (INDIANA UNIVERSITY RESEARCH AND TECHNOLOGY, published 2012)
